For test [1], the target named is YAP-binding domain of TEAD from Anabas testudineus (residues 211-428) (Anabas testudineus). The experiment in a line: SPR. Background: In SPR one partner is held on a chip, and binding of the other changes the refractive index at the surface.
Test [2] deals with YAP-binding domain of human TEAD4, TEAD4 217-434 (human) (UniProt Q15561). Description: SPR.

pKd: −log10 of the molar value.

Chain of YAP-binding domain of human TEAD4, TEAD4 217-434 (human) (Q15561 217-434): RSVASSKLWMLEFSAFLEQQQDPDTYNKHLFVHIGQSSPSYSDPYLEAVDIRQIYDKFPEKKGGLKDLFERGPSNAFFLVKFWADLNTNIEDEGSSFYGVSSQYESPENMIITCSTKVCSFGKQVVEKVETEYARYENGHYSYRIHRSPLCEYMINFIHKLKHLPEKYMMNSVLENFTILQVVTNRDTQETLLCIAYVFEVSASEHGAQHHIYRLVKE

“synthetic peptide of the TEAD-binding domain of YAP, Anabas testudineus_1 (residues 21-59)”: the pKd (commonly the negative decadic logarithm of the Kd, by convention in mol/L) was 7.00 in test [1] and 7.15 in test [2].

In the case of “synthetic peptide of the TEAD-binding domain of YAP, Anabas testudineus_2 (residues 21-60)”, the pKd in test [1] is 7.22.

Source of the values: article PMC7784741.
